Reference: patent US20110104705A1, “Musclin receptor and use thereof” (Takeda Pharmaceutical Company Limited, priority 2006, published 2011)

T1: hNpr3 (Homo sapiens, UniProt P17342)
T1 construct: host or cells: FreeStyle293 cells (transient transfection)
T1 sequence (P17342 27-540 isoform P17342-2 limits assumed): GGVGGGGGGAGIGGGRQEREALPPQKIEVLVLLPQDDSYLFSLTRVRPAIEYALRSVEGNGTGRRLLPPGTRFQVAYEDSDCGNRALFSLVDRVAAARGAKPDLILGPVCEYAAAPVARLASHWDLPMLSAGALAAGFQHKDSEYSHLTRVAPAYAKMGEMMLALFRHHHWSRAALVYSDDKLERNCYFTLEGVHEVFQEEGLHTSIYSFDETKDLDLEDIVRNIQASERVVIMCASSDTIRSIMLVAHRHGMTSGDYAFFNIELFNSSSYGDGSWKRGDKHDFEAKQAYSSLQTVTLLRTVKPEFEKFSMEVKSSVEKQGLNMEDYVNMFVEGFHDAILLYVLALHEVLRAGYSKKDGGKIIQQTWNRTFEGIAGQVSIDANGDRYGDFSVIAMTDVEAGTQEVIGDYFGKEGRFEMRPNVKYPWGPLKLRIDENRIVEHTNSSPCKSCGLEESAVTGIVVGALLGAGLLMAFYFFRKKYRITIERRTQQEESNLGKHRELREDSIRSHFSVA


Target: T1, hNpr3
Test: Binding of biotin-labeled mMusclin to hNpr3-expressing FreeStyle293 cells (PE-labeled Streptavidin staining), with competition by unlabeled ligands
Conditions: for change in the binding of labeled mMusclin in the presence of a known NPR3 ligand: competitor at 10 μM; for change in the binding of labeled mMusclin in the presence of a known NPR3 ligand / change in the binding of labeled mMusclin in the presence of the unlabeled protein: BK- or BC-labeled mMusclin 0.5 μg/ml, hNpr3-expressing FreeStyle293 cells; for change in the binding of labeled mMusclin in the presence of the unlabeled protein: competitor at 100 μg/ml; for binding of labeled mMusclin to cells transfected with hNpr3 expression vector: 0.5 μg/ml labeled mMusclin, 4° C. 30 minutes, 0.3 μg (Low) or 1.0 μg (high) hNpr3 vector per 1.0×10^6 FreeStyle293 cells
Description: A hNpr3 expression vector (hNpr3/pCMV6-XL4, NM_000908 Clone #PL1154_A07) was purchased from OriGene. 0.3 μg (Low) or 1.0 μg (high) of the hNpr3 expression vector was transfected transiently per 1.0×10^6 FreeStyle293 cells by a conventional method; 48 hours later, the cells were collected and suspended in PBS-1.0% BSA at 5×10^6 cells/ml. A 1-ml portion of each cell lyzate was incubated with a final concentration of 0.5 μg/ml of BK-mMusclin or BC-mMusclin at 4° C. for 30 minutes; after 1 time of washing, the lyzate was stained with PE-labeled Streptavidin, and the cells bound to each Musclin were analyzed. Also, incubation was performed in the presence of 100 μg/ml full-length mMusclin, mCA, or His-Tyr-Cys-mMusclin, or 10 μM ANP (Atrial Natriuretic Peptide, Rat, Mouse), CANP (Atrial Natriuretic Peptide 4-23—NH2 Des-[Gln18 Ser19 Gly20 Leu21 Gly22], Rat), or LANP (Atrial Natriuretic Peptide 104-126 Des-[Cys105 Cys121], Rat) (Phoenix Pharmaceuticals, Inc.), whereby changes in the binding of labeled mMusclin were examined.

Molecule	change in the binding of labeled mMusclin in the presence of a known NPR3 ligand	change in the binding of labeled mMusclin in the presence of the unlabeled protein	further results
Atrial Natriuretic Peptide 4-23—NH2 Des-[Gln18 Ser19 Gly20 Leu21 Gly22], Rat [CANP, reference compound]	the binding nearly disappeared	–	–
Atrial Natriuretic Peptide 104-126 Des-[Cys105 Cys121], Rat (SFGGRIDRIGAQSGLGNSFRY) [LANP, known ligand of the NPR3 molecule (Phoenix Pharmaceuticals, Inc.), reference compound]	the binding nearly disappeared	–	–
Atrial Natriuretic Peptide, Rat, Mouse (SLRRSSCFGGRIDRIGAQSGLGCNSFRY) [ANP, known ligand of the NPR3 molecule (Phoenix Pharmaceuticals, Inc.), reference compound]	the binding nearly disappeared	–	–
mCA: C-Terminal mMusclin (mCA) protein, cleaved from thioredoxin fusion (SFSGFGSPLDRLSAGSVEHRGKQRKAVDHSKKRFGIPMDRIGRNRLSSSRG)	–	the binding nearly disappeared	–
musclin: skeletal muscle specific secretory protein (protein, UniProt P61366 28-133, looked up) Osteocrin: VDVTTTEAFDSGVIDVQSTPTVREEKSATDLTAKLLLLDELVSLENDVIETKKKRSFSGFGSPLDRLSAGSVDHKGKQRKVVDHPKRRFGIPMDRIGRNRLSNSRG	–	–	bindability of musclin to natriuretic peptide receptors (NPR1, NPR2, NPR3) (summary statement): binds specifically to the receptor NPR3
BC-labeled mMusclin: His-Tyr-Cys-mMusclin labeled with about 1 molecule of biotin at the introduced Cys residue (Maleimide PEO2 Biotin) (protein) MGSSHHHHHHSSGLVPYGCHMLASQEFGTASLQSPPTAREEKSATELSAKLLRLDDLVSLENDVFETKKKRSFSGFGSPLDRLSAGSVEHRGKQRKAVDHSKKRFGIPMDRIGRNRLSSSRG	–	–	binding of labeled mMusclin to cells transfected with hNpr3 expression vector: bound dependently on the amount of the hNpr3 gene introduced into the cells
His-Tyr-Cys-mMusclin: His-tag Tyr Cys mouse musclin protein, ORF of SEQ ID NO:8 (protein, His-tag, Tyr, Cys) MGSSHHHHHHSSGLVPYGCHMLASQEFGTASLQSPPTAREEKSATELSAKLLRLDDLVSLENDVFETKKKRSFSGFGSPLDRLSAGSVEHRGKQRKAVDHSKKRFGIPMDRIGRNRLSSSRG	–	the binding nearly disappeared	–
BK-labeled mMusclin: labeled mMusclin incorporating about 5 molecules of biotin/1 molecule of mMusclin (Sulfo-NHS-LC-Biotin) (protein) LASQEFGTASLQSPPTAREEKSATELSAKLLRLDDLVSLENDVFETKKKRSFSGFGSPLDRLSAGSVEHRGKQRKAVDHSKKRFGIPMDRIGRNRLSSSRG	–	–	binding of labeled mMusclin to cells transfected with hNpr3 expression vector: bound dependently on the amount of the hNpr3 gene introduced into the cells
full-length mMusclin: purified full-length mouse musclin protein, cleaved from thioredoxin fusion, expressed in Escherichia coli (protein) LASQEFGTASLQSPPTAREEKSATELSAKLLRLDDLVSLENDVFETKKKRSFSGFGSPLDRLSAGSVEHRGKQRKAVDHSKKRFGIPMDRIGRNRLSSSRG	–	the binding nearly disappeared	–
